Data published in EP4703384A1.

Key:
[1] = molecular target: human GPRC5D protein (human) (UniProt Q9NZD1); experiment: FACS, hybridoma subclone supernatant on NCI-H929 cells
[2] = molecular target: CHO-K1-hGPRC5D^hi cells, CHO-K1-cynoGPRC5D cells, and/or CHO-K1-murineGPRC5D cells; experiment: cell ELISA (OD450), subclone supernatant on fixed transfected CHO-K1 cells against CHO-K1

Sequence of human GPRC5D protein (human) (Q9NZD1 whole entry): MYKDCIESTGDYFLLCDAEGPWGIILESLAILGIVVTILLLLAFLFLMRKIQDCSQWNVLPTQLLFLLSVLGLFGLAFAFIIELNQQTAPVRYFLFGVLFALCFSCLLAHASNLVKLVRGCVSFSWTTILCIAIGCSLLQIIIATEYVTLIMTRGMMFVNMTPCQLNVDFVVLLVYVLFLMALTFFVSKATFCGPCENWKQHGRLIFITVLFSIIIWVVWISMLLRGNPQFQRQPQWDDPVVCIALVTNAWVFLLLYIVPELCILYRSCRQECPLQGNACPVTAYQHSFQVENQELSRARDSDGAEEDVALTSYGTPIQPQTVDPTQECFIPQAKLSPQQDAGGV

Row | Binder | MFI [1] [MFI] | fold difference in absorbance as compared to the control cell CHO-K1 [2] [fold]
1 | mu-128 (antibody, V domains shown) VH: DVQLVESGGGLVQPGGSRKVSCAASGFTFSSFGMHWVRQAPEKGLEWVAYISRGSSTIYYADTVKGRFTISRDNPKNTLFLQMTSLRSEDTAMYYCARSGYGSSSYYFDYWGQGTTLTVSS VL: ENVLTQSPAIMSASPREKVTMTCRASSSIRSSYLHWYQQKSGASPKLWIYSTSNLASGVPARFSGSGSGTSYSLTISSVEAEDAATYYCQQFSGYPLTFGGGTKLEIK | 15700 | > 2
2 | mu-169 (antibody, V domains shown) VH: EVKLVESGGGLVKPGASLKLSCAASGFTFSNYGMSWVRQTSDKRLEWVASISSGGGRIYYPDNVKGRFTISRENAKNTLYLQMSSLKSEDTALYYCTRHAMDNWGQGTSVIVSS VL: QIVLTQSPAIMSASPGEKVTMTCSASSSVSNMYWYQQKSGTSPKRWIYDTSKLASGVPARFSGSGSGTSYSLTISSMEAEDASTYYCQQWSSNPLTFGAGTTLELK | 59300 | > 2

Second part, the binder after the results:

Row | MFI [1] [MFI] | fold difference in absorbance as compared to the control cell CHO-K1 [2] [fold] | Binder
3 | 11900 | > 2 | mu-89 (antibody, V domains shown) VH: EVQLVESGGDLVKPGGSLKLSCAASGFTFSSYGMSWVRQTPDKRLEWVATISSGGSYTYYPDSVKGRFTFSRDNAKNTLYLQMSSLKSEDTAMYYCVRQALRYHMDSWGQGTSVTVSS VL: DIVMTQSQKFMSTSVGDRVSVTCKASQNVGTNVAWYQQKPGQSPKALIYSASYRYSGVPDRFTGSGSGTDFTLTISNVQSEDLADFFCQQYYSYPWTFGGGTKLEIK
4 | 13200 | > 2 | mu-105 (antibody, V domains shown) VH: EVQLQQSGPELVKPGASVKMSCKASGYTFTDYYMNWVKQSHGKSLEWIGYIYPNNGGTGYNQRFKGKATLTADKSSSTAYMELRSLTSEDSAVYYCARWGGTRLGYYAMDYWGQGTSVTVSS VL: DIVMTQSQKFMSTSVGDRVSVTCKASQNVGTNVVWYQQKPGQSPKLLIYWASTRHTGVPDRFTGSGSGTDFTLTISNVQSEDLADYFCQQYSRYPYTFGGGTKLEIK
5 | 12800 | > 2 | mu-131 (antibody, V domains shown) VH: EVQLQQSGPELVKPGASVKMSCKASGYTFTNYVMHWVKQKPGQGLEWIGYFNPYNDGTNYNEKFKGKATLTSDKSSNTAYMELSSLTSEDSAVYYCARGGVRRYFDVWGAGTTVTVSS VL: DIQMTQSPSSLSASLGERVSLTCRASQDIGSNLNWLQLGPDGTIKRLIYATFSLDSGVPKRFSGSRSGSDYSLTISSLESEDFVDYYCQQYANFPPTFGGGTKLEIK
